In patent publication US20230310650A1 one finds decrease in p-Erk percentages of live t-Erk positive T cells (flow cytometry) after infection with E. coli TOP10 pGB4 data, which are given here for one substance.

This experiment concerns the target human extracellular signal-regulated kinase 1/2 (Erk) (human) (UniProt P27361). As to the kind of experiment: cell-based or functional assay.
Sequence of UniProt P27361 (P27361 2-379 limits assumed, chain 1 of 2): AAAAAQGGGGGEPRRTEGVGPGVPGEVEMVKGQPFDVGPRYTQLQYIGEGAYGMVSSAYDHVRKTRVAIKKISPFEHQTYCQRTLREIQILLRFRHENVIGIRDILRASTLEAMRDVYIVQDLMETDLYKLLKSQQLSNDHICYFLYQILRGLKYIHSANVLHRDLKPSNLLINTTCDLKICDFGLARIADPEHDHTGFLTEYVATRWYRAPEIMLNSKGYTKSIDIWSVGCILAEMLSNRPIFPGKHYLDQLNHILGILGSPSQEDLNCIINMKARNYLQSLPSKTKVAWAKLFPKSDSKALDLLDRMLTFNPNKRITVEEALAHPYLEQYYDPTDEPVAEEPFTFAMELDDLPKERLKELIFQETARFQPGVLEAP
Sequence of UniProt P27361 (P28482 2-360 limits assumed, chain 2 of 2, further chain): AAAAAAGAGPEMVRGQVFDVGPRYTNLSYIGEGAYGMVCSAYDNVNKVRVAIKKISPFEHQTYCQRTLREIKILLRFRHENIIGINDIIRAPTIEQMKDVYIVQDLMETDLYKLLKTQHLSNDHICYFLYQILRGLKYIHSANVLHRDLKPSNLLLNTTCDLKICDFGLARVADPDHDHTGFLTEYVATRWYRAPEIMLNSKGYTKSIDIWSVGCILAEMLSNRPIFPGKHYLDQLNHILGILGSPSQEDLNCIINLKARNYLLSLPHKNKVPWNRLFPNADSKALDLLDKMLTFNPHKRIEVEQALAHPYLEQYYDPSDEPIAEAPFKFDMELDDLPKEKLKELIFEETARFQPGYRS

“MAPK phosphothreonine lyase OspF of Shigella flexneri, expressed from pGB4 as a fusion to TEM-1 (from UniProt Q8VSP9 1-239)” displayed a decrease in p-Erk percentages of live t-Erk positive T cells (flow cytometry) after infection with E. coli TOP10 pGB4 of more than 60%.
